Here are results for two molecules from paper PMC2580787 (The EMBO journal, 2008).

For the experiment, the target named is T1, Sec24d (lacking residues 1-266) (human, UniProt O94855 267-1032).
T1 sequence (looked up): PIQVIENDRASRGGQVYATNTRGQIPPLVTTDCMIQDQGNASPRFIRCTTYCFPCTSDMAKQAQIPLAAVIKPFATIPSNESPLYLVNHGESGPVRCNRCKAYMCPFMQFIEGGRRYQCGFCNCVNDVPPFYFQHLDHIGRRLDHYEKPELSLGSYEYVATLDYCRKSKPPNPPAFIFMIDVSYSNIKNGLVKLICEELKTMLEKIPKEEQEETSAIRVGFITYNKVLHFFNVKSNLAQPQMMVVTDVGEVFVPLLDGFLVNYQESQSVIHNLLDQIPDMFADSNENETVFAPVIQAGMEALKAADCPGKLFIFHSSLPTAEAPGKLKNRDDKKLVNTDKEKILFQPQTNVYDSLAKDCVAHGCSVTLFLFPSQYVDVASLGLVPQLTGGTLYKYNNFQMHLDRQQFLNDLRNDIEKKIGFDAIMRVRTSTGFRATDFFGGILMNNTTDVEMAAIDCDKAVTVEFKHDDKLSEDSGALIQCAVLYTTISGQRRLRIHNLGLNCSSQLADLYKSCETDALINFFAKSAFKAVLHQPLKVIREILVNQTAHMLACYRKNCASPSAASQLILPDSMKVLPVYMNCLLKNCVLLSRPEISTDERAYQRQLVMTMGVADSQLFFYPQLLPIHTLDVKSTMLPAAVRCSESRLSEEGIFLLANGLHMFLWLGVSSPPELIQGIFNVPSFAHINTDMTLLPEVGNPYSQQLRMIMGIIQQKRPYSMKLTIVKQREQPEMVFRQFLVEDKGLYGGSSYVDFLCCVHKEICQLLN

B1: syntaxin 5 peptide 188DVAIDMMDP196 (peptide)
peptide: DVAIDMMDP
As for B1, the binding result is reported as “binds”.

B2: membrin peptide 116TTIPMDE122 (peptide)
peptide: TTIPMDE
With B2, the binding result is listed as “binds”.
